The data set is described as follows: protein stability index of a GFP-peptide fusion (GPS, HEK-293T) (PSI 1-6); higher = more stable. To be noted: c terminus: native.
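Note: lentivirally expressed fusion library, cells FACS-sorted into six equal-sized GFP/DsRed ratio bins, PSI computed from sequencing read fractions per bin weighted by bin number.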

B1: TRPA1 addE (peptide)
chain: EQRNSRWNTVLRAVKAKTHHLEPE
Take B1: the protein stability index (parent: NP_015628.1) amounted to 4.66.

B2: SNF8 addE (peptide)
chain: LPALFTDLYSQEITAEEAREALPE
Regarding B2, the protein stability index (parent: NP_009172.2) is 5.12.

B3: PSMB5 addE (peptide)
chain: DGWIRVSSDNVADLHEKYSGSTPE
For B3, the protein stability index (parent: NP_002788.1) was determined as 4.

B4: BEX2 addE (peptide)
chain: HSLRAVSTDPPHHDHHDEFCLMPE
B4: the protein stability index (parent: NP_116010.1) is 4.74.

B5: POLD2 addE (peptide)
chain: CQPISFSGFGAEDDDLGGLGLGPE
Consider B5, for which the protein stability index (parent: NP_006221.1) amounted to 2.57.
